± gives the standard deviation of the averaged measurements.

The data set relates to Saccharomyces cerevisiae. In words: protein stability index of tFT-peptide fusion (C-terminal peptide) (PSI (0-1 scale)); higher = more stable (slower turnover). As to conditions: genetic background: wild type; temperature: 30 C.
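Note: PSI is a weighted mean of sequencing reads over stability bins, variants kept only with over 10 reads, mCherry proximal and sfGFP distal, peptide attached via GGGS linker.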

Regarding YDLLLYGGATSP, the protein stability index was determined as 0.757 ± 0.084.
Turning to YDRFVNGKSPGM, the protein stability index stood at 0.701 ± 0.06.
To YDSGNWPGFRCQ belongs 0.73 ± 0.055; to YDVLGLFPICKW, 0.729 ± 0.06; to YEHPRLRNGSIM, 0.8 ± 0.24.
The figure for YFCCFIPFFFDC is 0.663 ± 0.069.
The sequence YFETNINKYLRM registered a protein stability index of 0.7107 ± 0.00072.
YFFECFKECREQ yielded a protein stability index of 0.749 ± 0.015.
YGGCGFEEEGVR gave a protein stability index of 0.73 ± 0.02.
The figure for YGGSLLNVFGLG is 0.645 ± 0.0078.
YGIGVRMPRSYW came in with a protein stability index of 0.709 ± 0.035.
As for YGPRNRNPPNAG, the protein stability index turned out to be 0.688 ± 0.099.
The figure for YHPPLDHHQCTE is 0.648 ± 0.063; for YHPPLTIQSLGH it is 0.694 ± 0.029.
For the sequence YIGLPVSALTIF, the protein stability index was determined as 0.574 ± 0.1.
The figure for YILSSFPSCLVL is 0.64 ± 0.034; for YINRKKKKINKT it is 0.675 ± 0.066; for YKGGDEVKTKKK it is 0.656 ± 0.035.
To YKRRYTKNQIRK belongs 0.666 ± 0.054; to YKSKQKAQQKAK, 0.64 ± 0.13.
YLFSLSSSLFIL gave a protein stability index of 0.56 ± 0.0085.
For the sequence YLPLPPLTPPPR, the protein stability index was determined as 0.776 ± 0.036.
The sequence YLPSTAHSAHPP displayed a protein stability index of 0.737 ± 0.045.
The figure for YLQPSGSRPGAK is 0.715 ± 0.014; for YLRSMIPKELAV it is 0.605 ± 0.023.
To YMIPVPFSNLCL belongs 0.66 ± 0.011.
In turn, YMSHPHGPLCLS gave a protein stability index of 0.75 ± 0.21.
The figure for YPAVNLVPPPDV is 0.675 ± 0.013; for YPGPFTGCSKIQ it is 0.676 ± 0.069.
The figure for YPGVSRCGTRWV is 0.643 ± 0.046.
YPHAGSTSLLLF showed a protein stability index of 0.685 ± 0.0073.
To YPLRVSRCWSPP belongs 0.773 ± 0.1; to YPPGSPVPPGLP, 0.671 ± 0.0076; to YPRGFPTLSYSS, 0.727 ± 0.023.
The figure for YPRPIPSISRTS is 0.731 ± 0.053; for YQAVRGRVFVAL it is 0.638 ± 0.044; for YQFGFLPAFPAC it is 0.7 ± 0.013.
As for YRARRRPPPSPP, the protein stability index was determined as 0.682 ± 0.045.
Sequence YREPKISEMLQE showed a protein stability index of 0.621 ± 0.017.
As to YRIWFSSFLHPT, the protein stability index is 0.741 ± 0.18.
To YRPPFPAALFSE belongs 0.6962 ± 0.0034.
As for YRRASGGTVEDM, the protein stability index was 0.721 ± 0.024.
The sequence YRSPPPLRGLIP returned a protein stability index of 0.711 ± 0.088.
The figure for YRTCLHRGRQML is 0.68188 ± 0.00019.
The sequence YRTPCPPLSPHS showed a protein stability index of 0.719 ± 0.062.
YRVFTANYEYEQ came in with a protein stability index of 0.724 ± 0.023.
The sequence YSGFVVGASDTL yielded a protein stability index of 0.601 ± 0.18.
Take YSHSRVNPDAWG: the protein stability index was determined as 0.669 ± 0.11.
To YSRGVSGSDKFP belongs 0.747 ± 0.16; to YSVSAALPREFR, 0.773 ± 0.062.
As for YTLPVHPAFVFP, the protein stability index turned out to be 0.683 ± 0.071.
Regarding YTPDFPTIVSFI, the protein stability index stood at 0.694 ± 0.14.
The figure for YTSTSTILRPFP is 0.676 ± 0.078; for YVAGECVFVCWE it is 0.657 ± 0.04.
The figure for YVARERWEGCRI is 0.7 ± 0.0077; for YVGAENRGVQGW it is 0.723 ± 0.016.
The sequence YVKHTVKVSGHK returned a protein stability index of 0.665 ± 0.0098.
As for YVRCSVKCHILT, the protein stability index came to 0.609 ± 0.029.
The figure for YWFVFGEFSGGR is 0.716 ± 0.042; for YWPPIRSILPQY it is 0.67 ± 0.033.
To YYAGFTAFGSLA belongs 0.709 ± 0.079; to YYVGLHSFSILQ, 0.729 ± 0.076.
